Assay results taken from patent US20240409645A1 (DUALYX, published 2024).

T1: cynomolgus monkey IL-2Rβ/CD122 subunit (cynomolgus monkey, UniProt Q38J85 27-239, limits assumed)
T1 construct: also called Cyno IL-2R subunit
T1 sequence (looked up): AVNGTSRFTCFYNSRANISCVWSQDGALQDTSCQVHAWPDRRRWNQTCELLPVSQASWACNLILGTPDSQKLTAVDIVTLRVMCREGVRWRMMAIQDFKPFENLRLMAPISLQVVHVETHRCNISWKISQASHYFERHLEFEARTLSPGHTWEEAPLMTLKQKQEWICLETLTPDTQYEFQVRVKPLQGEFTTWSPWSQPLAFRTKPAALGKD

T2: human interleukin-2 receptor β-chain (IL-2Rβ; CD122), recombinant protein (human, UniProt P14784 27-240)
T2 construct: also called human IL-2R subunit CD122
T2 sequence: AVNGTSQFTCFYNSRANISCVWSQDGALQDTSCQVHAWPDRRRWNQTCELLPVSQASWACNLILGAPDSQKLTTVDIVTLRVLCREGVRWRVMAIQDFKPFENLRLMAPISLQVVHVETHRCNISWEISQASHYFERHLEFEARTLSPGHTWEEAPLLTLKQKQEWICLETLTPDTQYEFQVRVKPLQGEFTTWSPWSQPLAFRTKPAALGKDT

T3: human IL-2Rα (human, UniProt P01589 22-240, limits assumed)
T3 construct: recombinant protein; also called hu IL-2R; human IL-2Ra
T3 sequence: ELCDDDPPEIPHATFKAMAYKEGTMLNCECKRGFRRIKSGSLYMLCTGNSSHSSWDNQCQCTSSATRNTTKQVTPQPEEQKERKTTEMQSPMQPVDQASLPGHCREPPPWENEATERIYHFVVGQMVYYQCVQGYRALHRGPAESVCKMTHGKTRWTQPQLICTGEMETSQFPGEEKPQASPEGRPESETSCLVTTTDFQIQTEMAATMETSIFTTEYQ

T4: mouse IL-2Rα (mouse, UniProt P01590 22-236, limits assumed)
T4 construct: recombinant protein; also called mo IL-2R; mouse IL-2Ra
T4 sequence (looked up): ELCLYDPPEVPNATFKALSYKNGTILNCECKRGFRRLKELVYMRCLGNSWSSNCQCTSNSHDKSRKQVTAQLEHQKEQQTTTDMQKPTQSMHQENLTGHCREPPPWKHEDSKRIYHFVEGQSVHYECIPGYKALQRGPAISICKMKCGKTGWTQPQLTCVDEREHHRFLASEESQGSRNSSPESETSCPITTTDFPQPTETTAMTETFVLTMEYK


Experiments:
[1] = target: T1, cynomolgus monkey IL-2Rβ/CD122 subunit; test: ELISA, bivalent; EC50 cyno vs human subunit
Experimental: (§1) Monospecific monovalent and bivalent IL-2Rα-, IL-2Rβ- and IL-2Rγ-specific antibodies that were selected on human IL-2R subunits, were evaluated for their cross-reactivity in an ELISA. Human and cynomolgus monkey receptor subunits (Acrobiosystems, KactusBiosystems) were coated at 1 μg/mL in PBS (pH 7.4) in a Maxisorp plate (Nunc) and incubated overnight at 4° C. The plates were further washed with PBS-Tween pH 7.4 and incubated with 1% cascin/PBS-Tween blocking solution for 1 hour shaking at 400 rpm. Subsequently, the plate was washed three times with PBS-Tween pH 7.4, after which the test antibodies diluted in 0.1% casein/PBS-Tween were added to the plate and incubated for 1 hour. The plate was again washed three times, after which goat anti-human IgG Fc (HRP) detection antibody (abcam) was added to the plate and incubated for 30 min. The colouring reaction was performed with TMB (Sigma-Aldrich) and stopped with 0.5N H₂SO₄.
(§2) Absorbance was measured at 450 nm with the reference wavelength of 620 nm using spectrophotometer. Final analysis and graphic output were performed with GraphPad Prism version 8 (GraphPad Software). The dose-response binding curves were fit to a nonlinear regression model (log (agonist) vs. response with a variable slope (four parameters)).

[2] = target: T1, cynomolgus monkey IL-2Rβ/CD122 subunit; test: ELISA, bivalent VHH-hFc
Experimental: as §1, §2

[3] = target: T2, human interleukin-2 receptor β-chain …; test: ELISA, bivalent VHH-hFc
Experimental: as §1, §2

[4] = target: T3, human IL-2Rα; test: ELISA, P.E. on coated antigen
Outline: (§3)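 Plates were coated overnight at 4° C with human or mouse IL-2R chain protein, and free sites blocked for 1 hour in 4% Marvel in PBS. Periplasmic extracts diluted 1:5 in 1% Marvel/PBS then bound for 1 hour, with specificity assessed from 450 nm absorbance relative to negative controls.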

[5] = target: T4, mouse IL-2Rα; test: ELISA, P.E. on coated antigen
Outline: as §3

[6] = target: T3, human IL-2Rα; test: SPR, P.E. on immobilised antigen
Outline: (§4)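 Immobilised receptor density: ~2500 RU (CM5, amine coupling). Analyte: VHH-containing P.E., 30 uL/min. Read-out: off-rate over 120s.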

[7] = target: T4, mouse IL-2Rα; test: SPR, P.E. on immobilised antigen
Outline: as §4

Fold change [1]	EC50 [2]	EC50 [3]	OD (PE binding ELISA) [4]	OD (PE binding ELISA) [5]	koff [6]	koff [7]	binding result [2]	Binder
0.9 fold	0.23 nM	0.245 nM	–	–	–	–	–	16-MP02B08 VHH-hFc, monospecific bivalent (Fc fusion, IgG1 Fc LALA-PG; not shown: human IgG1 CH2 and CH3 domains (Fc)) EVQLVESGGGLVQAGGSLRLSCAASGRAIENYPVGWFRQAPGKEREFVAAITWISGSTLYADSVKGRFTISRDNAKNTVYLQMSSLKPEDTALYYCAAALKTITRGQNDYSYWGQGTQVTVSS
4.3 fold	0.895 nM	0.209 nM	–	–	–	–	–	15-MP02E06 VHH-hFc, monospecific bivalent (Fc fusion, IgG1 Fc LALA-PG; also called anti-IL-2Rβ Ab 15; not shown: human IgG1 CH2 and CH3 domains (Fc)) QVQLVESGGGSVQPGGSLRLSCAASGFTFSNYAMSWVRQAPGKGLEWVASITGFGRGTDYADSVKGRFTISRDNAEDTLYLQMNSLKPEDTAVYYCAKYSSSTYYPPTPARGRDYRGQGTQVTVSS
2.4 fold	0.127 nM	0.053 nM	–	–	–	–	–	168-MP02B09 VHH-hFc, monospecific bivalent (Fc fusion, IgG1 Fc LALA-PG; not shown: human IgG1 CH2 and CH3 domains (Fc)) EVQLVESGGGLVQAGGSLRLSCAASGRTFSTTEMGWFRQAPGKEREFVAAITWTGRGTMYAESVEGRFTISRENAKNMVYLQMNSLKPEDTAIYYCAAARRGRAAVRSEGGYDFWGQGTQVTVSS
0.8 fold	0.603 nM	0.794 nM	–	–	–	–	–	19-MP03F08 VHH-hFc, monospecific bivalent (Fc fusion, IgG1 Fc LALA-PG; not shown: human IgG1 CH2 and CH3 domains (Fc)) EVQLVESGGGLVQTGGSLRLSCAASGGTFSRDAMAWFRQVPGKEREFVALISWSGATTNYADSVKGRFAISRDNGKNTVYLQMNRLKPADTAIYYCAADRRPMGSRSYFEPTEYDDWGQGTQVTVSS
1 fold	0.122 nM	0.124 nM	–	–	–	–	–	22-MP03F12 VHH-hFc, monospecific bivalent (Fc fusion, IgG1 Fc LALA-PG; not shown: human IgG1 CH2 and CH3 domains (Fc)) EVQLVESGGGLVQAGGSLRLSCAASGSIFSINAMAWFRQVPGMERELVAAISRDGGASVYRDSVKGRFTISRDNSKNTVYLQMNTLKPEDTAIYVCAATRAIGWTARWITTDFDFWGQGTQVTVSS
0.7 fold	0.065 nM	0.09 nM	–	–	–	–	–	126-MP02A03 VHH-hFc, monospecific bivalent (Fc fusion, IgG1 Fc LALA-PG; not shown: human IgG1 CH2 and CH3 domains (Fc)) QVQLVESGGGLVQPGGSLRLSCAASGFTFSNYAMSWVRQAPGKGLEWVSSITGAGRGTYYAESVKGRFTISRDNDKNTLYLQMNSLKPEDTAVYYCAKYDSSTFYPPTPARGIADRGQGTRVTVSS
1 fold	0.06 nM	0.06 nM	–	–	–	–	–	115-MP02E01 VHH-hFc, monospecific bivalent (Fc fusion, IgG1 Fc LALA-PG; not shown: human IgG1 CH2 and CH3 domains (Fc)) EVQLVESGGGLVQIGGSLRLSCAASGRTFSSITMAYFRQVPGKEREWVAGINFSGTRTFYADSVKGRFLISRDDAKSTMYLQMNSLKPEDTAVYYCAASPRGFYGPGNALYDYWGQGTQVTVSS
–	–	–	2.15 OD450 nm	0.045 OD450 nm	0.00103 s⁻¹	0.0114 s⁻¹	–	FJ1427_P035MP05B05 (VHH, periplasmic extract; also called clone nr) VHH: EVQLVESGGGLVQAGGSLRLSCAASGFTFDGYAVGWFRQAPGKEPEGVSYITGSDGVTYYIDSVKGRFTISSDNAKRTVYLQMNTLKPEDTAVYYCAVDRLGSQGRYASSWWRAGDMDFWGKGTLVTVSS
1.3 fold	0.157 nM	0.125 nM	–	–	–	–	–	23-MP06F03 VHH-hFc, monospecific bivalent (Fc fusion, IgG1 Fc LALA-PG; not shown: human IgG1 CH2 and CH3 domains (Fc)) QVQLVESGGGLVQAGGSLRLSCAVSGDVFVRYTMAWFRQAPGKEREFVASVTDSGRTTDYVHSVKGRFTVSRDNAKNTVYLQMNNLKPEDTAVYYCAANTDYFQIKSLDANTWGQGTQVTVSS
1.2 fold	0.138 nM	0.117 nM	–	–	–	–	–	26-MP06A07 VHH-hFc, monospecific bivalent (Fc fusion, IgG1 Fc LALA-PG; not shown: human IgG1 CH2 and CH3 domains (Fc)) QVQLQESGGGLVQAGGSLRLSCAASGDVFVRYTMAWFRQAPGKEREFVASVTDSGRTTEYVDSVKGRFTVSRDNAKNTAYLQMNNLKPEDTAIYYCAANTDYFQIRSLDLNTWGQGTQVTVSS
1.4 fold	0.265 nM	0.191 nM	–	–	–	–	–	24-MP06E05 VHH-hFc, monospecific bivalent (Fc fusion, IgG1 Fc LALA-PG; not shown: human IgG1 CH2 and CH3 domains (Fc)) QVQLVESGGELVQGGASLRLSCAASGRTFSNANMAWFRQAPEKEREFVALITWSSGSTLYADSVKGRFTISRDNARKMVYLQMNSLKPEDTAVYYCAADGPPYSGTYYRYDTYDYWGQGTQVTVSS
–	–	–	2.43 OD450 nm	0.071 OD450 nm	0.000659 s⁻¹	0.00311 s⁻¹	–	FJ1427_P035MP05C06 (VHH, periplasmic extract; also called clone nr) VHH: QVQLVESGGGLVQAGGSLRLSCAASGLTFDGYAIGWFRQASGKEREGVSYINGRDGSTFYTDSVKGRFIISSDNAKNTVDLQMNSLKPDDAAVYYCAVDRLGSRGAYVSSWWRSPDMDLWGKGTLVTVSS
–	–	–	2.17 OD450 nm	0.05 OD450 nm	0.00278 s⁻¹	0.0129 s⁻¹	–	FJ1427_P035MP05H08 (VHH, periplasmic extract; also called clone nr) VHH: QLQLVESGGGLVQAGGSLRLSCAASGLTFDGYAIGWFRQASGKEREGVSYINGRDGSTFYADSVKGRFIISSDNAKNTVDLQMNSLKPDDAAVYYCAVDRLGSRGAYVSTWWRSPDMDLWGKGTLVTVSS
–	–	–	1.91 OD450 nm	0.045 OD450 nm	0.00224 s⁻¹	0.0122 s⁻¹	–	FJ1427_P035MP05D04 (VHH, periplasmic extract; also called clone nr) VHH: QLQLVESGGGLVQAGGSLRLSCAASGLTFDGYAIGWFRQASGKEREGVSYINGRDGSTFYADSVKGRFIISSDNAKNTVDLQMNSLNPDDAAVYYCAVDRLGSRGAYVSSWWRSPDMDLWGKGTLVTVSS
1.2 fold	0.105 nM	0.085 nM	–	–	–	–	–	166-MP02H08 VHH-hFc, monospecific bivalent (Fc fusion, IgG1 Fc LALA-PG; not shown: human IgG1 CH2 and CH3 domains (Fc)) EVQLVESGGGLVQAGDSLRISCAASGRIFSNYAMGWFRQAPGKETEFVAGITHLTSTTHYADSVKGRFTISRDNAKNTMHLQMNNLKPEDTALYYCAADRNIKITADWSYWGQGTQVTVAS
1.9 fold	0.157 nM	0.084 nM	–	–	–	–	–	161-MP02C08 VHH-hFc, monospecific bivalent (Fc fusion, IgG1 Fc LALA-PG; not shown: human IgG1 CH2 and CH3 domains (Fc)) EVQLVESGGGLVQAGGSLRLSCAASGSTFSRQPMYWFRQAPGKEREFVAAITWSGRGTLYADSVEGRFTISRDNAKNTVYLQMNSLRPDDTAAYYCAAGPYGDAAYRHGRIDSWGQGTQVTVSS
–	–	0.218 nM	–	–	–	–	no binding	20-MP03F10 VHH-hFc, monospecific bivalent (Fc fusion, IgG1 Fc LALA-PG; not shown: human IgG1 CH2 and CH3 domains (Fc)) EVQLVESGGGLVQAGGSLRLSCAASGRDFSSYAMGWFRQAPGKEREFVVAITWTKRSTDFPDSVKGRFTISRDNAKNTVYLDMNSLKPEDTAVYYCASARGLPVTPLGDIIYWGEGTLVTVSS
1 fold	0.3 nM	0.294 nM	–	–	–	–	–	18-MP03C03 VHH-hFc, monospecific bivalent (Fc fusion, IgG1 Fc LALA-PG; not shown: human IgG1 CH2 and CH3 domains (Fc)) QVQLVESGGGLVQPGGSLRLSCAISGGTLDSYGIGWVRQAPGKQREGVSCMSRSDDRTYYADSVKGRFTISKDSAKNTVYLQMTSLKPEDTAVYYCAAVDAYGCSLVQPTTYDFWGLGTQVTVSS
1.5 fold	0.184 nM	0.124 nM	–	–	–	–	–	17-MP02C09 VHH-hFc, monospecific bivalent (Fc fusion, IgG1 Fc LALA-PG; also called anti-IL-2Rβ Ab 17; not shown: human IgG1 CH2 and CH3 domains (Fc)) QVQLQESGGGLVQAGGSLRLSCVASGSVSSINGMAWYRQGADNQRVLVAAISRVGNTAYGDSVKGRFTISRQNARNTVYLQMNSLKPEDTAVYYCNADSWGGDDYWGQGTQVTVSS
